Several values for one entry are separate records, joined by “and”; a condition that tells them apart may be missing. Identical values can stand only once.
Target: the molecule itself
Experiment: cross-linking

B1: recombinant His-klp9p (natural protein, S. pombe (fission yeast), UniProt Q1MTQ7 1-633, looked up)
chain: MIQIFLRVKKAQPSSDASNKYGFLTVLNDYEILLESPEDSHAYRVSKSKTLEKASFTKVFPPSCTQLDVFSTICAPLIADSLVNMNDTLLFTLGVSGAGKTYTLFGPSDRPGVAFLALDALFYAIKGREASPQTVEFLRSQLEKCKIVEASKFLRGEAPLDIKVPNTEYYASHFPKIEEKNYQYAIYLSFAEIYNDRIFDLLEKASFFGHRHALSLKKSSTSDKKSIAGIQKVFVSNTTEAYKLIQKVLQLRKSTSTKSNSVSSRSHLIMSIELFKVCTKSNKFESCQIDLVDLAGSERTRSAETSGLLLREGASINRSLLTLGQCLEALRRKHEGKQHIIPFRQSKLTELLFHSGHLSGLAGINMLVNIDPFGSFDENAQVMRYSANAREILPPPLNENSGSQSPSHSLLQKSKNTSSTKALTSHLEQLQQENQQLRMLLADADSEMMNLEYEIRQQMTREMEERVSEVERTFLTKLLEESAQGIEYTDQKLEKMGGWMKKLQDENSEKTETIAQLEQIIEELHEELRSLEEESIKESSATQQNENQHKRSSRKLLYEDKQAIQEAHTINTKRKLWPQSTLIQAPNSDDEENVPSPSPKKKVVSPIKPLSPSRRPPLTSLYSGTTDIDINEL
For B1, the “stoichiometry N” value was 2 and 4.

Source: publication PMC2997714 (Developmental cell, 2009)
